Measured values published in patent US20140086936A1.
Blank lines part the entries; values can stand above or below the binder they belong to.

How the values were obtained:
[1] = target: T1, Recombinant purified human matriptase (amino acids 596-855) (human), Q9Y5Y6; experiment: enzyme inhibition, fluorogenic substrate Boc-Gln-Ala-Arg-AMC, Morrison tight-binding fit
T1 chain: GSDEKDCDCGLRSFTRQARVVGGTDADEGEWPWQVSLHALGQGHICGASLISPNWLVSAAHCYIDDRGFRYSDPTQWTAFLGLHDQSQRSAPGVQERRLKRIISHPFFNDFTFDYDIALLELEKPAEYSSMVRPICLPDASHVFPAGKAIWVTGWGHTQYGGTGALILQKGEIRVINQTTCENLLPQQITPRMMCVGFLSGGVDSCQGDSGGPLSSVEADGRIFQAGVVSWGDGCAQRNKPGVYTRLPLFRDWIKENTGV

[2] = target: T1, Recombinant purified human matriptase …; experiment: ratio of Ki values, enzyme inhibition
[3] = target: T1, Recombinant purified human matriptase …; experiment: enzyme inhibition, 1 nM matriptase, 1 µM inhibitor, Boc-Gln-Ala-Arg-AMC 50 µM
[4] = target: T1, Recombinant purified human matriptase …; experiment: enzyme inhibition, fluorogenic substrate Boc-Gln-Ala-Arg-AMC, mixed model fit
[5] = target: thrombin; experiment: enzyme inhibition, selectivity profile, mixed model fit
[6] = target: T2, TMPRSS11D, O60235; experiment: enzyme inhibition, selectivity profile, Morrison tight-binding fit
T2 chain: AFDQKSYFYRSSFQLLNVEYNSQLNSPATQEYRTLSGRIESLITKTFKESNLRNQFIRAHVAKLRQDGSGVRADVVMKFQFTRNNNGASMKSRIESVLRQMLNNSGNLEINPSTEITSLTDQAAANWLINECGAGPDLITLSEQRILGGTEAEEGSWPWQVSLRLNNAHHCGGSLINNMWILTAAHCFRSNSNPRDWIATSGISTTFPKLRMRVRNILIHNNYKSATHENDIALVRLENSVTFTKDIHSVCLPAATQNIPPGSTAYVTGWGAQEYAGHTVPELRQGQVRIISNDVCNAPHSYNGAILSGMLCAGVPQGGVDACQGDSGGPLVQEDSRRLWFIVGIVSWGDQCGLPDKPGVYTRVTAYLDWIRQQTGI

[7] = target: Bovine trypsin (bovine), P00760; experiment: as above
[8] = target: T3, matriptase-2 (human), Q8IU80; experiment: as above
T3 chain: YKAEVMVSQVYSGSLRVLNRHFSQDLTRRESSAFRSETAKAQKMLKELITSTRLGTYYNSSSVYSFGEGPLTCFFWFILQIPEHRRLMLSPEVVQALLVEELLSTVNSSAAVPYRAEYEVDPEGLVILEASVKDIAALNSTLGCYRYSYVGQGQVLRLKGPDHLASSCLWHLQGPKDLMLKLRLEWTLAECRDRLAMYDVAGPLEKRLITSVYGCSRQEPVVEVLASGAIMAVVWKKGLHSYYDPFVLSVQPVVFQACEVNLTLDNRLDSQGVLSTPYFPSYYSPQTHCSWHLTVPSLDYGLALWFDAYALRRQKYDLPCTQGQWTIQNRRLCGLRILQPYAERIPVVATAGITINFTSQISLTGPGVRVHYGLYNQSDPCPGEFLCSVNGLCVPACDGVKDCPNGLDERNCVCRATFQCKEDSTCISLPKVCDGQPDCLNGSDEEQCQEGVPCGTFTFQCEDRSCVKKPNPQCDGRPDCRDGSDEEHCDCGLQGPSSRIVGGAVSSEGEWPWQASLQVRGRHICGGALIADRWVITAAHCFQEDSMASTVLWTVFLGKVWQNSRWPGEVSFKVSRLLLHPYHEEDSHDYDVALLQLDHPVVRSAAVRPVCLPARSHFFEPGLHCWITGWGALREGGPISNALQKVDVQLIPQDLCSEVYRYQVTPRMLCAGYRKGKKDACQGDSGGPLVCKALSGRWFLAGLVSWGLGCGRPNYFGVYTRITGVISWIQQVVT

[9] = target: T1, Recombinant purified human matriptase …; experiment: enzyme inhibition, 1 nM enzyme, Boc-Gln-Ala-Arg-AMC substrate
[10] = target: hepsin (human), P05981; experiment: as above
hepsin (human), P05981, sequence (P05981 45-417 limits assumed): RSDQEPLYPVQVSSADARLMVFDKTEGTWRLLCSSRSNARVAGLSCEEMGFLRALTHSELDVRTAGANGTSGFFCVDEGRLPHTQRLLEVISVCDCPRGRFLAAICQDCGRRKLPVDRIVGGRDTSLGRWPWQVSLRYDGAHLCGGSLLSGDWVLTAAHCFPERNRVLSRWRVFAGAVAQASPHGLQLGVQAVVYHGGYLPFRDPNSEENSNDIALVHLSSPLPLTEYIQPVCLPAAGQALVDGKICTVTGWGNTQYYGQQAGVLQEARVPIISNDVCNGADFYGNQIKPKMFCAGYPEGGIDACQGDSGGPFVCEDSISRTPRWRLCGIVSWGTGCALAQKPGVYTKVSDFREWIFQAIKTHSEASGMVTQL

Bovine trypsin (bovine), P00760, sequence (P00760 24-246): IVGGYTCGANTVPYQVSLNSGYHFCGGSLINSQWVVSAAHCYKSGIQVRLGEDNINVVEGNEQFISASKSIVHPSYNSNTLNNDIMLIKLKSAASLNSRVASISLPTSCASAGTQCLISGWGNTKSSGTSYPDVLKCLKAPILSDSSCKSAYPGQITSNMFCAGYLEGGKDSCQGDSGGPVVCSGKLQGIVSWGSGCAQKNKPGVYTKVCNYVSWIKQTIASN

Ki [1]: 4.6 nM
Binder: RQAR (modifications not checked) [R-Q-A-(D)R ketobenzothiazole (compound 7)]

Ki [1]: 9.5 nM
change of Ki relative to compound 1 (orders of magnitude) [2]: 3
percent inhibition of matriptase activity at 1 µM [3]: 25%
Binder: RQAK (modifications not checked) [RQAK-ketobenzothiazole]

Ki [4]: 6120 nM
Binder: RQAR (modifications not checked) [reduced form of RQAR-ketobenzothiazole]

Ki [5]: 637 nM
Ki [6]: 8.4 nM
Ki [7]: 0.97 nM
Ki [8]: 3.3 nM
IC50 [9]: 29 nM
IC50 [10]: 540 nM
Binder: RQAR (modifications not checked) [RQAR-ketobenzothiazole]
